Fold increase in affinity over DATC5 data for one molecule are collected here from patent US20220033450A1, “VIRALLY EXPRESSED INHIBITORS OF PDZ DOMAINS, SUCH AS PICK1 AND USES THEREOF” (University of Copenhagen, priority 2018, published 2022).

This assay concerns the target Protein Interacting with C Kinase-1 (PICK1), Q9EP80. Put plainly: FP competition, PICK1 0.15 µM, tracer PEG4 linked dimeric C5 20 nM.

Sequence of Protein Interacting with C Kinase-1 (PICK1), Q9EP80 (Q9EP80 whole entry): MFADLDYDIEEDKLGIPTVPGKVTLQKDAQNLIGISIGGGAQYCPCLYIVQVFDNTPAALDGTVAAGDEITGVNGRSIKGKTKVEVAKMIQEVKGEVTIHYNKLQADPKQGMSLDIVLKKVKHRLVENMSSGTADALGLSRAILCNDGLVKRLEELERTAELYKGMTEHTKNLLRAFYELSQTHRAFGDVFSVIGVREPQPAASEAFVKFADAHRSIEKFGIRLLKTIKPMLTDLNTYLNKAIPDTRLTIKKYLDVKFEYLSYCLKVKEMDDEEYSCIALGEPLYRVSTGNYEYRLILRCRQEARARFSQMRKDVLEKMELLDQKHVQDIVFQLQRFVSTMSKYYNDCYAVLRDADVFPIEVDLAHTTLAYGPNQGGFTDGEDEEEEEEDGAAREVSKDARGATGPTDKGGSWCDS

In turn, GEELLEDIRKFNEMRKNMDQLKEKINSVLSIRQGGGGSHWLKV (designed binder, modifications not checked) [SSO10a-GS4-HWLKV] gave a fold increase in affinity over DATC5 of 16 fold.
